The labels stand for the following.
B2: His-NONO fusion protein (natural protein, UniProt Q15233 1-471, looked up)
chain: MQSNKTFNLEKQNHTPRKHHQHHHQQQHHQQQQQQPPPPPIPANGQQASSQNEGLTIDLKNFRKPGEKTFTQRSRLFVGNLPPDITEEEMRKLFEKYGKAGEVFIHKDKGFGFIRLETRTLAEIAKVELDNMPLRGKQLRVRFACHSASLTVRNLPQYVSNELLEEAFSVFGQVERAVVIVDDRGRPSGKGIVEFSGKPAARKALDRCSEGSFLLTTFPRPVTVEPMDQLDDEEGLPEKLVIKNQQFHKEREQPPRFAQPGSFEYEYAMRWKALIEMEKQQQDQVDRNIKEAREKLEMEMEAARHEHQVMLMRQDLMRRQEELRRMEELHNQEVQKRKQLELRQEEERRRREEEMRRQQEEMMRRQQEGFKGTFPDAREQEIRMGQMAMGGAMGINNRGAMPPAPVPAGTPAPPGPATMMPDGTLGLTPPTTERFGQAATMEGIGAIGGTPPAFNRAAPGAEFAPNKRRRY
notes: NONO, from the pET28a plasmid; source: E. coli BL21, purified (nickel-nitrilotriacetic acid beads)

What all share (settings): both partners purified
The target of one assay is T1, His-PKM2 fusion protein (UniProt P14618 1-531).
T1 construct: PKM2, from the pET28a plasmid; source: E. coli BL21, purified (nickel-nitrilotriacetic acid beads)
Briefly: pull-down; GST pull-down: GST-NONO (full length or fragments) on glutathione-Sepharose beads mixed with His-PKM2 for 4 h at 4 °C, five washes, western blot. In general terms: In western blotting, separated proteins are transferred to a membrane and probed.

The target in another assay is T2, GST-PKM2-T412A mutant (UniProt P14618 1-531, T412A).
T2 construct: PKM2 point mutant, from the pGEX-6P-1 plasmid; Probably made on the full-length GST-PKM2; source: E. coli BL21, purified (glutathione S-transferase beads)
Description: pull-down; GST pull-down: GST-PKM2 (full length, fragments or mutants) incubated with His-NONO at 4 °C for 4 h, five washes, western blot.

The target of another assay is T3, GST-PKM2-D487A mutant (UniProt P14618 1-531, D487A).
T3 construct: PKM2 point mutant, from the pGEX-6P-1 plasmid; Probably made on the full-length GST-PKM2; source: E. coli BL21, purified (glutathione S-transferase beads)
The assay is described as above.

For the next assay, the target named is T4, GST-PKM2-D476A mutant (UniProt P14618 1-531, D476A).
T4 construct: PKM2 point mutant, from the pGEX-6P-1 plasmid; Probably made on the full-length GST-PKM2; source: E. coli BL21, purified (glutathione S-transferase beads)
Described as above.

Another assay deals with T5, GST-PKM2-S406A mutant (UniProt P14618 1-531, S406A).
T5 construct: Probably made on the full-length GST-PKM2; source: E. coli BL21, purified (glutathione S-transferase beads)
The assay is described as above.

In the next assay the target is T6, GST-PKM2-R526A mutant (UniProt P14618 1-531, R526A).
T6 construct: PKM2 point mutant, from the pGEX-6P-1 plasmid; Probably made on the full-length GST-PKM2; source: E. coli BL21, purified (glutathione S-transferase beads)
The description is as above.

Assay [1] concerns the target T7, full-length GST-PKM2, wild type (UniProt P14618 1-531).
T7 construct: PKM2, full length (fragments run to residue 531), from the pGEX-6P-1 plasmid; also called GST-PKM2 WT; PKM2-WT; source: E. coli BL21, purified (glutathione S-transferase beads)
The description is as above.

The target of another assay is T8, GST-PKM2-R400A mutant (UniProt P14618 1-531, R400A).
T8 construct: PKM2 point mutant, from the pGEX-6P-1 plasmid; Probably made on the full-length GST-PKM2; source: E. coli BL21, purified (glutathione S-transferase beads)
The description is as above.

A further assay deals with T9, GST-PKM2-W515A mutant (UniProt P14618 1-531, W515A).
T9 construct: PKM2 point mutant, from the pGEX-6P-1 plasmid; Probably made on the full-length GST-PKM2; source: E. coli BL21, purified (glutathione S-transferase beads)
The description is as above.

The assay “His-NONO fusion protein” concerns the target B2. Described as above.

We go through four molecules from publication PMC11892261, “NONO interacts with nuclear PKM2 and directs histone H3 phosphorylation to promote triple-negative breast cancer metastasis” (Journal of Experimental & Clinical Cancer Research : CR, 2025).

T9 sequence (P14618 whole entry W515A): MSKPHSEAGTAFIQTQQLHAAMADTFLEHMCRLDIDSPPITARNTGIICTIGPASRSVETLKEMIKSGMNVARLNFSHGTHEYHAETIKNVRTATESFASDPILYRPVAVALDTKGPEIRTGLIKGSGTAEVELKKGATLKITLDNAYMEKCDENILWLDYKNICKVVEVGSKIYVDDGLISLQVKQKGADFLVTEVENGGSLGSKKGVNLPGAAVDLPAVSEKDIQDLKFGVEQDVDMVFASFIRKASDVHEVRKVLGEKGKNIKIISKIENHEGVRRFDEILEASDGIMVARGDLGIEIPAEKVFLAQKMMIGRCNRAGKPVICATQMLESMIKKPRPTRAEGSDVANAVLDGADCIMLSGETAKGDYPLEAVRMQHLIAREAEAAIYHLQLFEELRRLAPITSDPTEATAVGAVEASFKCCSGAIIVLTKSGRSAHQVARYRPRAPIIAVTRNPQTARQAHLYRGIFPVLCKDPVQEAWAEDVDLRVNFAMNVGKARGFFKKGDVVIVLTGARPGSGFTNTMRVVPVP
T6 sequence (P14618 whole entry R526A): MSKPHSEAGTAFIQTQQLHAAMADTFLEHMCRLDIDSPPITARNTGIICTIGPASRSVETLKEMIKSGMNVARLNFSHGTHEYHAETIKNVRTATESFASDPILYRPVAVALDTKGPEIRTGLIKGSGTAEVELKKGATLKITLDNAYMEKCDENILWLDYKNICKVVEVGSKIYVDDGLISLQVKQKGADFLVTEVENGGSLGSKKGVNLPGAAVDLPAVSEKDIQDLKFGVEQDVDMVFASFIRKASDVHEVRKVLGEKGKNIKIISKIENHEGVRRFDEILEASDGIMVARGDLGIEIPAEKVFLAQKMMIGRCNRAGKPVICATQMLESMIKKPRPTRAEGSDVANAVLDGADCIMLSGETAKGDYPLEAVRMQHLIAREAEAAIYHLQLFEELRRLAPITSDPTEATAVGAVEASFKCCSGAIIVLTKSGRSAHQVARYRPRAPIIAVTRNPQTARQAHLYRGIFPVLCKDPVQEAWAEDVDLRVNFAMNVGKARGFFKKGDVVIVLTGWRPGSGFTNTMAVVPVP

B1: GST-NONO fragment F4 (229-471 aa) (domain or fragment, UniProt Q15233 229-471, looked up)
chain: QLDDEEGLPEKLVIKNQQFHKEREQPPRFAQPGSFEYEYAMRWKALIEMEKQQQDQVDRNIKEAREKLEMEMEAARHEHQVMLMRQDLMRRQEELRRMEELHNQEVQKRKQLELRQEEERRRREEEMRRQQEEMMRRQQEGFKGTFPDAREQEIRMGQMAMGGAMGINNRGAMPPAPVPAGTPAPPGPATMMPDGTLGLTPPTTERFGQAATMEGIGAIGGTPPAFNRAAPGAEFAPNKRRRY
notes: NONO residues 229-471, from the pGEX-6P-1 plasmid; also called GST-NONO F4; source: E. coli BL21, purified (glutathione S-transferase beads)
Take B1: in the assay with His-PKM2 fusion protein, the binding result is “binds”.

With B2, the binding result (in the assay with GST-PKM2-T412A mutant; in the assay with GST-PKM2-D487A mutant; with GST-PKM2-D476A mutant; with GST-PKM2-S406A mutant; in the assay with GST-PKM2-R526A mutant; in [1]) was “binds” in each case. Also, the binding result with GST-PKM2-R400A mutant and with GST-PKM2-W515A mutant was “binds” each time.

B3: full-length GST-NONO (natural protein, UniProt Q15233 1-471, looked up)
chain: MQSNKTFNLEKQNHTPRKHHQHHHQQQHHQQQQQQPPPPPIPANGQQASSQNEGLTIDLKNFRKPGEKTFTQRSRLFVGNLPPDITEEEMRKLFEKYGKAGEVFIHKDKGFGFIRLETRTLAEIAKVELDNMPLRGKQLRVRFACHSASLTVRNLPQYVSNELLEEAFSVFGQVERAVVIVDDRGRPSGKGIVEFSGKPAARKALDRCSEGSFLLTTFPRPVTVEPMDQLDDEEGLPEKLVIKNQQFHKEREQPPRFAQPGSFEYEYAMRWKALIEMEKQQQDQVDRNIKEAREKLEMEMEAARHEHQVMLMRQDLMRRQEELRRMEELHNQEVQKRKQLELRQEEERRRREEEMRRQQEEMMRRQQEGFKGTFPDAREQEIRMGQMAMGGAMGINNRGAMPPAPVPAGTPAPPGPATMMPDGTLGLTPPTTERFGQAATMEGIGAIGGTPPAFNRAAPGAEFAPNKRRRY
notes: NONO, full length (fragments run to residue 471), from the pGEX-6P-1 plasmid; also called GST-NONO fusion protein; source: E. coli BL21, purified (glutathione S-transferase beads)
With B3, in the assay with His-PKM2 fusion protein, the binding result was “binds”.

B4: GST-PKM2 fragment F4 (390-531 aa) (domain or fragment, UniProt P14618 390-531, looked up)
chain: YHLQLFEELRRLAPITSDPTEATAVGAVEASFKCCSGAIIVLTKSGRSAHQVARYRPRAPIIAVTRNPQTARQAHLYRGIFPVLCKDPVQEAWAEDVDLRVNFAMNVGKARGFFKKGDVVIVLTGWRPGSGFTNTMRVVPVP
notes: PKM2 residues 390-531, from the pGEX-6P-1 plasmid; also called GST-PKM2 F4; source: E. coli BL21, purified (glutathione S-transferase beads)
For the molecule B4, in the assay with His-NONO fusion protein, the binding result is given as “binds”.
